Source: patent US11219221B2 (FarmHannong Co., Ltd., priority 2017, dated 2022)

Legend:
CyPPO17 [1] = assay: PPO enzyme activity of MBP-fused CyPPO17 wild type and variants; format: biochemical, Thermosynechococcus sp. NK55a; conditions: PPO enzyme activity relative to wild type; MBP-fused protein, 50 μM protoporphyrinogen IX, room temperature, 30 min
Description: Thus, PPO proteins of wild type and variants were expressed as fused to MBP and were used for experiments.
The following process for purification of PPO protein was performed in a 4° C. cold room. Amylose resin (NEB) was packed to 1.5×15 cm column (Bio-Rad, Econo Columns 1.5×15 cm, glass chromatography column, max. vol), and the obtained protein extracts were loaded to the column at a flow rate of 0.2 ml/min. The column was washed with 3 column volumes of buffer and the presence of protein in the washing solution was examined. When the protein was no longer detected, the washing procedure was terminated. Then, the MBP-PPO protein was eluted with approximately 2 column volumes of buffer containing 20 mM maltose. The protein concentration of each eluent was determined and the elution was stopped when the protein was no longer detected. Ten microliter of each fraction was investigated for protein quantification and SDS-PAGE analysis. The highly pure fractions of PPO protein variants were used for the enzyme assay.
Since protoporphyrinogen IX, a substrate of PPO protein, was not commercially available, it was chemically synthesized in the laboratory. Overall process was performed in dark under nitrogen stream. […] of protoporphyrin IX was dissolved in 20 ml of 20% (v/v) EtOH, and stirred under dark condition for 30 minutes. The obtained protoporphyrin IX solution was put into a 15 ml screw tube in an amount of 800 μl, and flushed with nitrogen gas for 5 minutes. To this, 1.5 g of sodium amalgam was added and vigorously shaken for 2 minutes. The lid was opened to exhaust hydrogen gas in the tube. Thereafter, the lid was closed and incubated for 3 minutes. The protoporphyrinogen IX solution was filtered using syringe and cellulose membrane filter. […] To determine the enzyme activity of PPO protein, a reaction mixture was prepared with the following composition (based on 10 ml): 50 mM Tris-Cl (pH 8.0); 50 mM NaCl; 0.04% (v/v) Tween 20; 40 mM glucose (0.072 g); 5 units glucose oxidase (16.6 mg); and 10 units catalase (1 μl).
Hundred and eighty microliters of a reaction mixture containing the purified PPO protein were placed in 96 well plates and 20 μl of […] were added. […] The reaction proceeded at room temperature for 30 min and the fluorescence of protoporphyrin IX was measured using Microplate reader (Sense, Hidex) (excitation: 405 nm; emission: 633 nm). […] To this, 2.7 N HCl was added, and the absorbance at 408 nm was measured. A standard curve was generated using standard protoporphyrin IX, and PPO activity was measured by calibration of protoporphyrin IX using the standard curve of protoporphyrin IX.
Activities of variants were presented relatively compared to that of wild type.

CyPPO17 [2] = assay: Herbicide tolerance test of CyPPO17 wild type and variants in PPO-deficient E. coli BT3(ΔPPO); format: cell-based, Thermosynechococcus sp. NK55a; conditions: BT3(ΔPPO) transformants; for Herbicide tolerance, tiafenacil: 37° C., 16 to 20 hours
Description: The mutated CyPPO gene obtained from the Example 2 was transformed to BT3 (ΔPPO) strain which is deficient of PPO activity and cultured in LB media with PPO-inhibiting herbicide, thereby examining whether growth of transformed BT3 was not inhibited.
BT3 competent cells were transformed with the pET303-CyPPO16 and pET303-CyPPO17 plasmids and those with a mutation(s) constructed in Example 2 respectively, and were cultured in LB agar media containing carbenicillin (Gold Biotechnology, Co., Ltd.).
Single colony of E. coli transformed with each CyPPO gene was cultured in 3 ml of LB broth containing carbenicillin overnight, and then was subcultured until absorbance (0D600) reached 0.5 to 1. Then, it was diluted with LB broth to OD600=0.5. Again, the diluted solution was serially diluted 4 times by a factor of one tenth.
The LB agar media (LB 25 g/l, Bacto agar 15 g/l) containing carbenicillin (100 μg/ml) and 0 to 4,000 μM of various herbicides dissolved in DMSO was prepared. Next, 10 μl of each diluted solution was dropped on the plate and cultured at 37° C. under light (Tables 7 and 9, FIGS. 2 to 6, and 18 to 22) or dark (Tables 8 and 10, FIGS. 7 to 17, and 23 to 33) for 16 to 20 hours. Then, extent of tolerance was evaluated.
The extent of herbicide tolerance of the mutated genes was evaluated by comparing that of mutated genes with that of wild type. The relative tolerance was represented with “+” as a factor of 10 times. Evaluation result was listed in Tables 7 to10 and FIGS. 2 to 33:
In Tables 7 to 10, tolerance level was presented as of tolerance of wild type and of variants equivalent to that of wild type, and was done as ‘+’ per each 10 fold resistance until ‘+++++’ as maximal resistance. (Tolerance level was evaluated by relative growth level of variants to that of wild type in the media containing highest concentration of herbicide; ‘+’=1-9 fold higher tolerance, ‘++’=10-99 fold higher tolerance, ‘+++’=100-999 fold higher tolerance, ‘++++’=1,000-9,999 fold higher tolerance, ‘+++++’=more than 10,000 fold higher tolerance)
The concentrations of herbicides were written above the photographs of tolerance test. A dilution series (0D600=0.5, 0.05, 0.005, 0.0005, 0.00005) was made and spotted on LB agar plates supplemented with herbicides.

[3] = one amino acid mutation, light, relative to wild type at highest concentration (50, 100 μM)
[4] = one amino acid mutation, light, relative to wild type at highest concentration (5, 25 μM)

B1: F359V: CyPPO17 variant (protein)
chain: MEVDVAIVGGGLSGLSVAWRLQQSAPQYSGVLLEASDRLGGNITTQGAEGFVWELGPNSFAPTPALLQLIAEVGLHSELIRGDRHLPRYIYWRGELYPLEPTRPLALATSNLLSPWGKVRAALGALGFVPPYLGSGDESVNSFFRRHLGQEVAERLVAPFVSGVYAGDPQQLSAAAAFRRIAQLEKLGGGLIAGALRLRRQQPPKPRPPAEVQMRPGELGSFKEGLAALPRAIAQQLKAPVHLQTPVEAITPEPNGGYLLRSGEQTWQARSVVLATPAYQTAALVAPFQPAIARVLAAIPYPTVACVVLAYPAGLGRSVRPGFGVLIPRGQGIRTLGTIWSSCLFPQRTPAGWQVFTSVIGGATDPDLASLREEAIVQQVQQDLTRLLDLPAAKARLLGMKVWRRAIPQYLVGYPQQWQQVTHALSQTPGLFLCSNYAEGVALGDRVEHGNRTAAAVAAYLSGGQS
modifications: Synthetic (Protoporphyrinogen IX oxidase (CyPPO17) of Thermosynechococcus sp. NK55a)
notes: CyPPO17 variant
- Activity (%) (CyPPO17 [1]): 84%
- Herbicide tolerance, tiafenacil (CyPPO17 [2]; [3]): ++ (‘++’=10-99 fold higher tolerance)
- Herbicide tolerance, pyraflufen-ethyl (CyPPO17 [2]; one amino acid mutation, light, relative to wild type at highest concentration (5, 10 μM)): ++ (‘++’=10-99 fold higher tolerance)
- Herbicide tolerance, acifluorfen (CyPPO17 [2]; [4]): + (‘+’=1-9 fold higher tolerance)
- Herbicide tolerance, fomesafen (CyPPO17 [2]; [4]): + (‘+’=1-9 fold higher tolerance)
- Herbicide tolerance, pentoxazone (CyPPO17 [2]; [4]): ++ (‘++’=10-99 fold higher tolerance)
- Herbicide tolerance, pyraclonil (CyPPO17 [2]; [4]): + (‘+’=1-9 fold higher tolerance)
- Herbicide tolerance, sulfentrazone (CyPPO17 [2]; [4]): ++ (‘++’=10-99 fold higher tolerance)
- Herbicide tolerance, flumioxazin (CyPPO17 [2]; [3]): ++ (‘++’=10-99 fold higher tolerance)
- Herbicide tolerance, saflufenacil (CyPPO17 [2]; one amino acid mutation, light, relative to wild type at highest concentration (50, 200 μM)): +++ (‘+++’=100-999 fold higher tolerance)

B2: L326T + F359M: CyPPO17 variant (protein)
chain: MEVDVAIVGGGLSGLSVAWRLQQSAPQYSGVLLEASDRLGGNITTQGAEGFVWELGPNSFAPTPALLQLIAEVGLHSELIRGDRHLPRYIYWRGELYPLEPTRPLALATSNLLSPWGKVRAALGALGFVPPYLGSGDESVNSFFRRHLGQEVAERLVAPFVSGVYAGDPQQLSAAAAFRRIAQLEKLGGGLIAGALRLRRQQPPKPRPPAEVQMRPGELGSFKEGLAALPRAIAQQLKAPVHLQTPVEAITPEPNGGYLLRSGEQTWQARSVVLATPAYQTAALVAPFQPAIARVLAAIPYPTVACVVLAYPAGLGRSVRPGFGVTIPRGQGIRTLGTIWSSCLFPQRTPAGWQVFTSMIGGATDPDLASLREEAIVQQVQQDLTRLLDLPAAKARLLGMKVWRRAIPQYLVGYPQQWQQVTHALSQTPGLFLCSNYAEGVALGDRVEHGNRTAAAVAAYLSGGQS
modifications: Synthetic (Protoporphyrinogen IX oxidase (CyPPO17) of Thermosynechococcus sp. NK55a)
notes: CyPPO17 variant
- Activity (%) (CyPPO17 [1]): 74%
- Herbicide tolerance, tiafenacil (CyPPO17 [2]; two or more amino acid mutations, dark, relative to wild type at highest concentration (50, 200 μM)): ++++ (‘++++’=1,000-9,999 fold higher tolerance)
- Herbicide tolerance, flumioxazin (CyPPO17 [2]; two or more amino acid mutations, dark, relative to wild type at highest concentration (100, 200 μM)): ++++ (‘++++’=1,000-9,999 fold higher tolerance)
- Herbicide tolerance, sulfentrazone (CyPPO17 [2]; two or more amino acid mutations, dark, relative to wild type at highest concentration (200, 400 μM)): +++ (‘+++’=100-999 fold higher tolerance)
